Reference: patent US20180346571A1

Key:
[1] = molecular target: human PD-L1 ECD-CD4TM-GFP expressed on HEK-293 / HEK-293T cells (human) (UniProt Q9NZQ7); experiment: FACS on HEK-293T cells expressing hPD-L1-GFP, control panel headed anti-mFc-PE in the row 'No antibody' (taken as the control without PD-1-Fc of paragraph 289)
[2] = molecular target: human PD-L1 ECD-CD4TM-GFP expressed on HEK-293 / HEK-293T cells (human) (UniProt Q9NZQ7); experiment: FACS on HEK-293 cells transfected with hPD-L1-GFP, secondary antibody alone (negative control)
[3] = molecular target: cynomolgus PD-L1-CD4TM-GFP expressed on HEK-293 cells (cynomolgus) (UniProt G7PSE7); experiment: FACS on HEK-293 cells transfected with cyno PD-L1-GFP, secondary antibody alone (negative control)
[4] = molecular target: mouse PD-L1-CD4TM-GFP expressed on HEK-293 cells (mouse) (UniProt Q9EP73); experiment: FACS on HEK-293 cells transfected with mPD-L1-GFP, secondary antibody alone (negative control)
Chain of UniProt Q9EP73 (Q9EP73 19-239): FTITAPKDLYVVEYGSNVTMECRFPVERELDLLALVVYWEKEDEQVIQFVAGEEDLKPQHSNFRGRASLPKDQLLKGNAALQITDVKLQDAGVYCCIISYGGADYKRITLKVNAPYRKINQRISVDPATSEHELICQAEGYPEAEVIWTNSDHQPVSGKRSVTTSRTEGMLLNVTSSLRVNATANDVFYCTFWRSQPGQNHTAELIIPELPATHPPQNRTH

Chain of UniProt Q9NZQ7 (Q9NZQ7 19-238): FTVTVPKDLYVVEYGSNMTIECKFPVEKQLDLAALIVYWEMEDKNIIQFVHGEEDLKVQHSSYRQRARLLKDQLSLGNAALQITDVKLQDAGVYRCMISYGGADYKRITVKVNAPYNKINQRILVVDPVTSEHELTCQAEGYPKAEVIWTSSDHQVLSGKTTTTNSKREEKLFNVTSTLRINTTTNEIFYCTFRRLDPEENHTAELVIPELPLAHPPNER
Chain of UniProt G7PSE7 (G7PSE7 entry or part of it limits assumed): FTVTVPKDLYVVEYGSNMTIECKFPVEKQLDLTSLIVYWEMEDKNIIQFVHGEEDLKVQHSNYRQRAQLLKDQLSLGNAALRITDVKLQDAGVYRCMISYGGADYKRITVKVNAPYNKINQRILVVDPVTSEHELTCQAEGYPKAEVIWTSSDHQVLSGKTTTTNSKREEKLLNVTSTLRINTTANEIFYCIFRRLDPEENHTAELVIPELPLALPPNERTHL

| MFI [1] | MFI [2] | MFI [3] | MFI [4] | Substance |
| --- | --- | --- | --- | --- |
| 10 | – | – | – | anti-mFc-PE (antibody) |
| – | 3 | 3 | 3 | Only anti-hFc Ab (antibody) |
| – | 6 | – | – | Only anti-mFc Ab (antibody) |
